Positions count from the first letter of the chain named. In names and notes the source's numbering stands.
B1: NPM1(7–117) (domain or fragment, UniProt P06748 7-117, looked up)
chain: MDMSPLRPQNYLFGCELKADKDYHFKVDNDENEHQLSLRTVSLGAGAKDELHIVEAEAMNYEGSPIKVTLATLKMSVQPTVSLGGFEITPPVVLRLKCGSGPVHISGQHLV
B2: NPM1(7–117)-K32A (domain or fragment, UniProt P06748 7-117, looked up)
chain: B1 chain with K26A
B3: NPM1(7–117)-Y67F (domain or fragment, UniProt P06748 7-117, looked up)
chain: B1 chain with Y61F
B4: NPM1(7–117)-Y67H (domain or fragment, UniProt P06748 7-117, looked up)
chain: B1 chain with Y61H
B5: NPM1(1–117) (domain or fragment, UniProt P06748 1-117, looked up)
chain: MEDSMDMDMSPLRPQNYLFGCELKADKDYHFKVDNDENEHQLSLRTVSLGAGAKDELHIVEAEAMNYEGSPIKVTLATLKMSVQPTVSLGGFEITPPVVLRLKCGSGPVHISGQHLV
B6: NPM1(1–188) (domain or fragment, UniProt P06748 1-188, looked up)
chain: MEDSMDMDMSPLRPQNYLFGCELKADKDYHFKVDNDENEHQLSLRTVSLGAGAKDELHIVEAEAMNYEGSPIKVTLATLKMSVQPTVSLGGFEITPPVVLRLKCGSGPVHISGQHLVAVEEDAESEDEEEEDVKLLSISGKRSAPGGGSKVPQKKVKLAADEDDDDDDEEDDDEDDDDDDFDDEEAEE
B7: NPM1(1–160) (domain or fragment, UniProt P06748 1-160, looked up)
chain: MEDSMDMDMSPLRPQNYLFGCELKADKDYHFKVDNDENEHQLSLRTVSLGAGAKDELHIVEAEAMNYEGSPIKVTLATLKMSVQPTVSLGGFEITPPVVLRLKCGSGPVHISGQHLVAVEEDAESEDEEEEDVKLLSISGKRSAPGGGSKVPQKKVKLAA
B8: NPM1(1–150) (domain or fragment, UniProt P06748 1-150, looked up)
chain: MEDSMDMDMSPLRPQNYLFGCELKADKDYHFKVDNDENEHQLSLRTVSLGAGAKDELHIVEAEAMNYEGSPIKVTLATLKMSVQPTVSLGGFEITPPVVLRLKCGSGPVHISGQHLVAVEEDAESEDEEEEDVKLLSISGKRSAPGGGSK
B9: NPM1(1–140) (domain or fragment, UniProt P06748 1-140, looked up)
chain: MEDSMDMDMSPLRPQNYLFGCELKADKDYHFKVDNDENEHQLSLRTVSLGAGAKDELHIVEAEAMNYEGSPIKVTLATLKMSVQPTVSLGGFEITPPVVLRLKCGSGPVHISGQHLVAVEEDAESEDEEEEDVKLLSISG
B10: NPM1(1–130) (domain or fragment, UniProt P06748 1-130, looked up)
chain: MEDSMDMDMSPLRPQNYLFGCELKADKDYHFKVDNDENEHQLSLRTVSLGAGAKDELHIVEAEAMNYEGSPIKVTLATLKMSVQPTVSLGGFEITPPVVLRLKCGSGPVHISGQHLVAVEEDAESEDEEE
B11: NPM1-236A (natural protein, UniProt P06748 1-294, looked up)
chain: MAASMAMDMSPLRPQNYLFGCELKADKDYHFKVDNDENEHQLSLRTVSLGAGAKDELHIVEAEAMNYEGSPIKVTLATLKMSVQPTVSLGGFEITPPVVLRLKCGSGPVHISGQHLVAVEEDAESEDEEEEDVKLLSISGKRSAPGGGSKVPQKKVKLAADEDDDDDDEEDDDEDDDDDDFDDEEAEEKAPVKKSIRDTPAKNAQKSNQNGKDSKPSSTPRSKGQESFKKQEKTPKTPKGPSSVEDIKAKMQASIEKGGSLPKVEAKFINYVKNCFRMTDQEAIQDLWQWRKSL
B12: NPM1-234567A (natural protein, UniProt P06748 1-294, looked up)
chain: B11 chain with S4A, M5A, M7A
B13: NPM1-T4sD (natural protein, UniProt P06748 1-294, looked up)
chain: B11 chain with A2E, A3D, A6D, T199D, T219D, T234D, T237D

Target: the molecule itself
Assay: SDS-resistant oligomer detection by SDS-PAGE
B1: binds. B2: binds. B3: binds. B4: binds.

Target: the molecule itself
Assay: SDS-resistant oligomer detection by SDS-PAGE
Remark: another data set of the same source
B5: binds. B6: binds. B7: binds. B8: binds. B9: binds. B10: binds.

Target: the molecule itself
Assay: SDS-resistant oligomer detection by SDS-PAGE
Remark: another data set of the same source
B11: binds. B12: binds.

Target: the molecule itself
Assay: SDS-resistant oligomer detection by SDS-PAGE
Remark: another data set of the same source
B13: binds.
